FireProtDB (doi:10.1074/jbc.273.1.167)
Values joined by “and” are separate entries in the source; they are usually repeats but may differ in a detail not shown here. Identical values can stand only once.

Settings: Bos taurus, pH 7, Thermal, DSC, phosphate 10 mM, transition: 3, reversible: no, whole UniProt chain shown

B1: Tubulin--tyrosine ligase wild type, P38584 (protein)
chain: MYTFVVRDENSSVYAEVSRLLLATGHWKRLRRDNPRFNLMLGERNRLPFGRLGHEPGLMQLVNYYRGADKLCRKASLVKLIKTSPELAESCTWFPESYVIYPTNLKTPVAPAQDGIHPPLHSSRTDEREFFLASYNRKKEEGEGNVWIAKSSAGAKGEGILISSDATELLDFIDNQGQVHVIQKYLERPLLLEPGHRKFDIRSWVLVDHQFNIYLYREGVLRTASEPYHMDNFQDKTCHLTNHCIQKEYSKNYGKYEEGNEMFFEAFNRYLTSALNITLESSILLQIKHIIRSCLMSVEPAISTKHLPYQSFQLFGFDFMVDEELKVWLIEVNGAPACAQKLYAELCQGIVDIAIASVFPPPDAEQQPPQPATFIKL
Mg++ 30 nM
  Tm: 51.1 °C
  unfolding enthalpy (calorimetric): 160 kcal/mol
Mg++ 35 nM
  unfolding enthalpy (calorimetric): 38 kcal/mol and 84 kcal/mol
Mg++ 40 nM
  unfolding enthalpy (calorimetric): 31 kcal/mol and 84 kcal/mol
Mg++ 182 nM
  Tm: 49.9 °C
  unfolding enthalpy (calorimetric): 158 kcal/mol
Mg++ 2.3 micro M
  Tm: 54.6 °C
  unfolding enthalpy (calorimetric): 173 kcal/mol
Mg++ 4.5 micro M
  Tm: 54.8 °C
  unfolding enthalpy (calorimetric): 173 kcal/mol
Mg++ 160 micro M
  Tm: 55.8 °C
  unfolding enthalpy (calorimetric): 150 kcal/mol
Mg++ 280 micro M
  Tm: 55.6 °C and 54.2 °C
  unfolding enthalpy (calorimetric): 186 kcal/mol and 200 kcal/mol
